This is an account of results in PMC7508885.

The Km is the concentration of substrate that gives half-maximal velocity. The term kcat denotes the number of substrate molecules converted per active site and unit of time at saturation.

This series relates to N[C@@H](Cc1ccc(O)cc1)C(=O)O. The experiment in a line: ATP:PPi exchange reaction. Conditions: other: other substrate (Tyr or ATP) held at 2 mM; enzyme 0.4 μM; pH 7.5; 37.0 °C. The series is classed as biochemical, Pseudomonas aeruginosa.

On to “P. aeruginosa TyrRS-S (Pseudomonas aeruginosa PAO1)”, for which the Michaelis-Menten constant (Km) came out at 172 µM and the catalytic constant (kcat) came out at 3.8 s⁻¹.

Consider “P. aeruginosa TyrRS-Z (Pseudomonas aeruginosa PAO1)”, for which the Km was found to be 29 µM and the turnover number (kcat) is 3.1 s⁻¹.
